# Biological target: Coxiella burnetii Fic enzyme 2 (CbFic2), wild type, untagged (Coxiella burnetii) (UniProt Q83DB6)
# Test: crystal structure
substance,measurement,value
"Coxiella burnetii Fic enzyme 2 (CbFic2), wild type, untagged (from UniProt Q83DB6 1-378)",stoichiometry N,2
